± gives the standard deviation of the averaged measurements.
tested on: ATP; experiment: switch fluorescence ratio, 500 uM ATP over buffer (Cy3 cluster intensity, sum of 5 cycles each) (fold (ratio)); higher = stronger signal-on switching upon ATP binding; sequences stand for … in TCGTCGGCAGCGTCAGATGTGTATAAGAGACAGTTTTTTTTTTTTTTTTTTTTTTTTT…TC; settings: aptamer strand: ATP DNA aptamer (quencher-CACCTGGGGGAGTATTGCGGAGGAAGG + anchor), 100 nM annealed; ATP concentration: 500 uM
Outline: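 Values give the fluorescence ratio for each switch-domain sequence, averaged from per-cluster ratios of summed target-cycle to summed buffer-cycle Cy3 intensity. The Cy3-labelled switching-strand clusters sat on a modified Illumina MiSeq flow-cell, were annealed to 100 nM quencher-labelled ATP aptamer, and were imaged in selection buffer, then after 15 min with 500 uM ATP at 22 °C. Five cycles ran with NaOH stripping and re-annealing between them, and clusters outside 100-1000 RFU were excluded.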
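Also: ATP exposure 15 min at 22 °C before imaging.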

Row | Sequence | switch fluorescence ratio
1 | TAATGGAGTT | 1 ± 0.029
2 | AGTTAATTTG | 0.9823 ± 0.0097
3 | ATGGGCAGCT | 1.02 ± 0.011
4 | TGAGTTTTAC | 1.04 ± 0.03
5 | TCTAAAGGGA | 1.03 ± 0.024
6 | GGGGGCTTAC | 1.01 ± 0.021
7 | TCGTCGATTC | 1.12 ± 0.02
8 | TTACGGGGTT | 0.988 ± 0.035
9 | TTAAAGGGCG | 0.976 ± 0.046
10 | AAAACACTGG | 1.06 ± 0.053
11 | CAGCTTGGGG | 1.019 ± 0.0089
12 | GTTAAAGGGT | 1.01 ± 0.0075
13 | AATTAAAAGT | 0.989 ± 0.017
14 | CCATTATAT | 0.982 ± 0.043
15 | ATGTGCTCTA | 0.9692 ± 0.0047
16 | ATAGTTGGGG | 1.02 ± 0.045
17 | CGTCTGTCGG | 1.03 ± 0.019
18 | ATGGGCTGGG | 0.997 ± 0.035
19 | ATTCGGTAGT | 1 ± 0.013
20 | CAGGCGTTAG | 1 ± 0.064
21 | TGGCCTTGTG | 1.02 ± 0.051
22 | AATACAGTGA | 0.9986 ± 0.00012
23 | AGTATGTGGG | 0.996 ± 0.048
24 | TTTGTATAAC | 1.01 ± 0.012
25 | ATGTTAAGAG | 0.9766 ± 0.0089

Row | Sequence | switch fluorescence ratio
26 | TAGTTGTGGT | 0.99 ± 0.034
27 | TTGAGAAAAG | 1.06 ± 0.099
28 | CGGATATTGT | 0.995 ± 0.028
29 | TATAATTGCC | 0.991 ± 0.0076
30 | CTGGGGGCTC | 1.01 ± 0.018
31 | TTTTTTCAGA | 0.975 ± 0.029
32 | CATGCACTAT | 1.08 ± 0.021
33 | GGGCTTGCAA | 1.04 ± 0.016
34 | AAAGAAAAGG | 0.989 ± 0.0065
35 | AGAGGGCATT | 0.967 ± 0.045
36 | TAAGAAGATT | 0.986 ± 0.024
37 | AAATACGTTT | 1 ± 0.016
38 | TGGCGTTAGG | 0.977 ± 0.019
39 | AGTGGACATC | 0.99098 ± 0.00034
40 | TGGTCGCGTT | 0.988 ± 0.043
41 | GCCGCACGGA | 1.13 ± 0.045
42 | TCTAGCCGGT | 0.9878 ± 0.0085
43 | TAGGGCTGGC | 1 ± 0.08
44 | CTTAGGACAG | 1.01 ± 0.035
45 | CAGTGCGGCT | 1.007 ± 0.0046
46 | GGGGGGAAAA | 0.986 ± 0.025
47 | AGGGGAGTAT | 1.45 ± 0.66
48 | GCTCGAAATG | 1.07 ± 0.031
49 | TTGGTCGCGT | 1.003 ± 0.0019
50 | ATTTGAAGGC | 0.9629 ± 0.0082

Row | Sequence | switch fluorescence ratio
51 | CAGATAGGGG | 1.12 ± 0.19
52 | TGGTGGGAAT | 1.02 ± 0.011
53 | CGTTGTCTAG | 0.9713 ± 0.005
54 | AACGTAGCGG | 1.07 ± 0.03
55 | AAATAGCTTT | 0.9909 ± 0.0026
56 | TAGCTGAGGG | 0.997 ± 0.015
57 | TTGTTACACA | 1.05 ± 0.043
58 | ATGGTAGTGG | 0.995 ± 0.026
59 | AGGTAACTGT | 1.01 ± 0.051
60 | CACGCTAGTA | 1.04 ± 0.021
61 | TTTGTTTTGG | 1.03 ± 0.025
62 | AGTCGGACGG | 1.01 ± 0.034
63 | ATGTAGTGCG | 0.99 ± 0.021
64 | TTTCAATGGA | 0.974 ± 0.018
65 | ATCATATTAG | 1.01 ± 0.019
66 | TTATTTTTCG | 1.02 ± 0.018
67 | GGAATCGGGC | 0.9487 ± 0.0014
68 | CCACGATTAA | 1.003 ± 0.008
69 | CGAAAATTAA | 1 ± 0.047
70 | GCTGACTTGG | 0.9714 ± 0.0081
71 | TTGTGGGGGT | 0.998 ± 0.02
72 | TGTAGGTAAA | 0.997 ± 0.029
73 | TGCAATGTAG | 1.082 ± 0.0029
74 | CGCTTAGGTT | 1.06 ± 0.061
75 | ATGGGTTTAG | 0.994 ± 0.016

Row | Sequence | switch fluorescence ratio
76 | CGTATACTGA | 1.01 ± 0.055
77 | TCGGGTATTC | 1.06 ± 0.14
78 | CTGCGGTGGG | 1.006 ± 0.0051
79 | TGTTGTTTGC | 0.982 ± 0.014
80 | TGGGCAGGCA | 1 ± 0.028
81 | GGGTTCTAGT | 0.9972 ± 0.008
82 | TAATGTGTAA | 0.9944 ± 0.0052
83 | ATAAGTGGG | 0.983 ± 0.018
84 | AAGTTACATT | 1.05 ± 0.012
85 | GAAAATGCAT | 0.99 ± 0.013
86 | AATCGAATAT | 1 ± 0.015
87 | AACAGACCTT | 1.13 ± 0.12
88 | TTTGTGTCAC | 0.984 ± 0.034
89 | TGACTGTATT | 1.14 ± 0.042
90 | GCCCTTTTTT | 1 ± 0.046
91 | GAATGTCTGC | 0.99 ± 0.037
92 | GGAAATTTGG | 0.993 ± 0.037
93 | TTCAGGCTTT | 1.01 ± 0.011
94 | GCGGGAATTG | 0.981 ± 0.023
95 | GAGCCTTACT | 1.38 ± 0.26
96 | CGAGAAATGG | 1.07 ± 0.055
97 | GAAAACGGGG | 1.01 ± 0.02
98 | AATCGCGGGC | 1.09 ± 0.024
99 | TTCACAAGGT | 1.004 ± 0.0049
100 | TTTGATGGGA | 1.025 ± 0.0068
